The values below come from PMC3973953.

Substrate in the data set: O=[N+]([O-])c1ccc(O[C@@H]2O[C@H](CO)[C@H](O)[C@H](O)[C@H]2O)cc1
Description: purified protein. As to conditions: McIlvaine buffer at optimal pH, 37 °C.

B1: A. nidulans rlacA (Aspergillus nidulans FGSC A4) (protein)
chain: VALTHKLNGFTITEHPDAEKRELLQKYVTWDDKSLFINGERIMIFGAEIHPWRLPVPSLWRDILQKVKALGFNCVSFYVDWALLEGKPGEYRAEGSFAWEPFFDAASDLGIYLIARPGPYINAEASGGGFPGWLQRLNGTIRSSDQSYLDATENYVSHIGGLIAKYQITNGGPVILYQPDNEYSGGCCGQEFPNPDYFQYVIDQARRAGIVVPTISNDAWPGGHNAPGTGKGEVDIYGHDNYPLGFDCANPDVWPEGNLPTDYRDLHLEISPSTPYALVEYQVGAFDPWGGPGFEQCAALTGYEFERVFHKNTFSFGVGILSLYMTFGGTNWGNLGHPGGYTSYDYGSPIKETREITREKYSELKLLGNFIKSSPGYLLATPGKLTNTTYTNTADLTVTPLLGNGTGSFFVLRHSDYSSQASTPYKLRLPTSAGQLTIPQLGGSLVLNGRDSKVHLVDYDVAGTKILYSTAEVFTWKKFHDGKVLVLYGGPGEHHELAVSSKAKVKVVEGLGSGISSKQIRGAVVVAWDVEPARRIVQIGDLKIFLLDRNSAYNYWVPQLGTETSIPYATEKAVAASVIVKAGYLVRTAYVKGRDLHLTADFNATTPVEVIGAPKTAENLFINGKKAHHTVDKNGIWSTEVGYSPPKIVLPVLEDLKWKSIDTLPEIQPSYDDSPWPDANLPTKNTIYPLRTPTSLYASDYGFHTGYLLFRGHFTANGRESNFSIQTQGGQAFGSSVWLSGTYLGSWTGDNDYQDYNATYTLPSLKAGKEYVFTVVVDNMGLNENWIVGQDEMKKPRGILNYELSGHEASDITWKLTGNFGGEDYVDKVRGPLNEGGLYAERHGYHQPYPPTKSKDWKSSTPLTGLSKPGISFYTASFDLDIKSGWDVPIYFEFGNSTTPAPAYRVQLYVNGWQYGKYVNNIGPQTRFPVPEGILNYKGTNWVAVTLWALEGSGAKLDSFKLVHGIPVRTALDVEGVELPRYQSRKGVY
For the protein B1, the Michaelis-Menten constant (Km) was determined as 1850 ± 210 µM, the kcat amounted to 63.4 ± 0.9 s⁻¹ and the kcat/Km came out at 34100 ± 1500 M⁻¹ s⁻¹.

B2: A. oryzae β-galactosidase (Aspergillus oryzae RIB40) (protein)
chain: ASIKHRLNGFTILEHPDPAKRDLLQDIVTWDDKSLFINGERIMLFSGEVHPFRLPVPSLWLDIFHKIRALGFNCVSFYIDWALLEGKPGDYRAEGIFALEPFFDAAKEAGIYLIARPGSYINAEVSGGGFPGWLQRVNGTLRSSDEPFLKATDNYIANAAAAVAKAQITNGGPVILYQPENEYSGGCCGVKYPDADYMQYVMDQARKADIVVPFISNDASPSGHNAPGSGTGAVDIYGHDSYPLGFDCANPSVWPEGKLPDNFRTLHLEQSPSTPYSLLEFQAGAFDPWGGPGFEKCYALVNHEFSRVFYRNDLSFGVSTFNLYMTFGGTNWGNLGHPGGYTSYDYGSPITETRNVTREKYSDIKLLANFVKASPSYLTATPRNLTTGVYTDTSDLAVTPLIGDSPGSFFVVRHTDYSSQESTSYKLKLPTSAGNLTIPQLEGTLSLNGRDSKIHVVDYNVSGTNIIYSTAEVFTWKKFDGNKVLVLYGGPKEHHELAIASKSNVTIIEGSDSGIVSTRKGSSVIIGWDVSSTRRIVQVGDLRVFLLDRNSAYNYWVPELPTEGTSPGFSTSKTTASSIIVKAGYLLRGAHLDGADLHLTADFNATTPIEVIGAPTGAKNLFVNGEKASHTVDKNGIWSSEVKYAAPEIKLPGLKDLDWKYLDTLPEIKSSYDDSAWVSADLPKTKNTHRPLDTPTSLYSSDYGFHTGYLIYRGHFVANGKESEFFIRTQGGSAFGSSVWLNETYLGSWTGADYAMDGNSTYKLSQLESGKNYVITVVIDNLGLDENWTVGEETMKNPRGILSYKLSGQDASAITWKLTGNLGGEDYQDKVRGPLNEGGLYAERQGFHQPQPPSESWESGSPLEGLSKPGIGFYTAQFDLDLPKGWDVPLYFNFGNNTQAARAQLYVNGYQYGKFTGNVGPQTSFPVPEGILNYRGTNYVALSLWALESDGAKLGSFELSYTTPVLTGYGNVESPEQPKYEQRKGAY
As to B2, the Km stood at 3020 ± 610 µM, the kcat stood at 46.4 ± 1.2 s⁻¹ and the kcat/Km stood at 14600 ± 600 M⁻¹ s⁻¹.
